Measurements as given in article PMC9482650, “Quantitative fragmentomics allow affinity mapping of interactomes” (Nature Communications, 2022).

B1: TMEM178A, Q8NBL3 (peptide)
chain: QLKSGRDSTV
B2: SORCS3, Q9UPU3 (peptide)
chain: TKEIPNCTSV
B3: SLCO1B1, Q9Y6L6 (peptide)
chain: SAGADSETHC

Key:
Assay in all cases: holdup assay
Set-up in all cases: key: below the threshold = too weak to quantify, mostly under pKd 3.1 to 4
Settings in all cases: plain residues with an end cap or a label only (N-terminal biotin on a linker: ado-ado)
SNTB1, Q13884 = target: T1, SNTB1, Q13884
T1 sequence (Q13884 107-205, limits assumed, looked up): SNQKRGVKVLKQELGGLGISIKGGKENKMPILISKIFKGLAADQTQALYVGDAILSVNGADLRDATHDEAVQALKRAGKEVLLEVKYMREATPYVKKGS

LRRC7, Q96NW7 = target: T2, LRRC7, Q96NW7
T2 sequence (Q96NW7 1440-1537, limits assumed, looked up): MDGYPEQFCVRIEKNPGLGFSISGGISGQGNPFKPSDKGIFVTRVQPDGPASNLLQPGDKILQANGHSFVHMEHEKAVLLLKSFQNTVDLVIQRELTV

ARHGAP21, Q5T5U3 = target: T3, ARHGAP21, Q5T5U3
T3 sequence (Q5T5U3 45-169, limits assumed, looked up): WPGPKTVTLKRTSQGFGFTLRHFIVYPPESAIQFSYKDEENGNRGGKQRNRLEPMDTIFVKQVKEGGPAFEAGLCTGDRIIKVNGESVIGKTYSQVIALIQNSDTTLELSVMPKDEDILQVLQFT

FRMPD1, Q5SYB0 = target: T4, FRMPD1, Q5SYB0
T4 sequence (Q5SYB0 52-145, limits assumed, looked up): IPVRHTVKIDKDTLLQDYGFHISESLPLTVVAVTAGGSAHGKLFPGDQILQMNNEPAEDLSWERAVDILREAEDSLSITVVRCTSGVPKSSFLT

PDZRN3_1, Q9UPQ7 = target: T5, PDZRN3_1, Q9UPQ7
T5 sequence (Q9UPQ7 244-349, limits assumed, looked up): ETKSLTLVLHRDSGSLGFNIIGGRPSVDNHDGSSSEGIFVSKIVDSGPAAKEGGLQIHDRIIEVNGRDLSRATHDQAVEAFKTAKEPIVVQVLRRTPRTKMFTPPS

MPDZ_10, O75970 = target: T6, MPDZ_10, O75970
T6 sequence (O75970 1624-1722, limits assumed, looked up): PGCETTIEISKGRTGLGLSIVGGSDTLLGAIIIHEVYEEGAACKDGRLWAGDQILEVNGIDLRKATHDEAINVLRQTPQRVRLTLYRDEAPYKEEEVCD

MPP7, Q5T2T1 = target: T7, MPP7, Q5T2T1
T7 sequence (Q5T2T1 134-230, limits assumed, looked up): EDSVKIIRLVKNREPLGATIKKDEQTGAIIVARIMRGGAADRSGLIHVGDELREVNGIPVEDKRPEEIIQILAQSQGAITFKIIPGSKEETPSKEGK

Inadl_4, Q8NI35 = target: Inadl_4, Q8NI35
Inadl_4, Q8NI35, sequence (Q8NI35 547-651): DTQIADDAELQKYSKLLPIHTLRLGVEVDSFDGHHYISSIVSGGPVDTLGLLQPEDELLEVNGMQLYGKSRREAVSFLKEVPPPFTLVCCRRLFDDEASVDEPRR

SCRIB_3, Q14160 = target: SCRIB_3, Q14160
SCRIB_3, Q14160, sequence (Q14160 999-1103): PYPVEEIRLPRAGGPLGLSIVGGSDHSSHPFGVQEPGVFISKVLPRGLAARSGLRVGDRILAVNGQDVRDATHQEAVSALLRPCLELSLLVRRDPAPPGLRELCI

Inadl_3, Q8NI35 = target: Inadl_3, Q8NI35
Inadl_3, Q8NI35, sequence (Q8NI35 359-469): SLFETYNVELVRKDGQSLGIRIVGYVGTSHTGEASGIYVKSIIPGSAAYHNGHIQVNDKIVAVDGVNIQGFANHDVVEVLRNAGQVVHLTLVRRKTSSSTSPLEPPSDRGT

DFNB31_2, Q9P202 = target: T8, DFNB31_2, Q9P202
T8 sequence (Q9P202 274-371, limits assumed, looked up): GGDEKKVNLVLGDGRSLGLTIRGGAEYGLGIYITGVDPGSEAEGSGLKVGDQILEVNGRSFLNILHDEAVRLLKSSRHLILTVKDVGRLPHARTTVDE

DLG4_1, P78352 = target: DLG4_1, P78352
DLG4_1, P78352, sequence (P78352 62-152): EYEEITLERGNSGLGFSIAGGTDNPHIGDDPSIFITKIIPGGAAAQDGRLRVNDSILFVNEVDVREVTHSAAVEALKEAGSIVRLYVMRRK

FRMPD2_2, Q68DX3 = target: FRMPD2_2, Q68DX3
FRMPD2_2, Q68DX3, sequence (Q68DX3 944-1038): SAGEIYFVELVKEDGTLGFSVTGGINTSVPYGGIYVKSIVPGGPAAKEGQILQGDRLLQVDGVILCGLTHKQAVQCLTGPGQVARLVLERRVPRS

Inadl_1, Q8NI35 = target: Inadl_1, Q8NI35
Inadl_1, Q8NI35, sequence (Q8NI35 113-229): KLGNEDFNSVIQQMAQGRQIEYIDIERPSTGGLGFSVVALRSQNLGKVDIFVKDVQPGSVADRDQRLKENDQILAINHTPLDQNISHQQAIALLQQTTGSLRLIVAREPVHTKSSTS

MPDZ_5, O75970 = target: T9, MPDZ_5, O75970
T9 sequence (O75970 695-796, limits assumed, looked up): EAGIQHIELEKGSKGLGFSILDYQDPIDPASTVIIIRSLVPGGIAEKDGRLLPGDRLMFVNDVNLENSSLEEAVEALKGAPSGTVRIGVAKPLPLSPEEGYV

NHERF4_1, Q86UT5-2 = target: NHERF4_1, Q86UT5-2
NHERF4_1, Q86UT5-2, sequence (Q86UT5 other isoform, or with tags, fused parts or gaps): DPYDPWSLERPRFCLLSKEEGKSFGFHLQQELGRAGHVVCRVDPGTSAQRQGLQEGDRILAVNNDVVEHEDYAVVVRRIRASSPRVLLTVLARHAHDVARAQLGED

HTRA3, P83110 = target: T10, HTRA3, P83110
T10 sequence (P83110 354-453, limits assumed, looked up): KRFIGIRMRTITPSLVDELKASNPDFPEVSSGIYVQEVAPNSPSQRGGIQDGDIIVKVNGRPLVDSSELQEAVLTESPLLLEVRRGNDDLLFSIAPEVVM

GORASP2, Q9H8Y8 = target: GORASP2, Q9H8Y8
NHERF4_4, Q86UT5 = target: NHERF4_4, Q86UT5
NHERF4_4, Q86UT5, sequence (Q86UT5 464-550): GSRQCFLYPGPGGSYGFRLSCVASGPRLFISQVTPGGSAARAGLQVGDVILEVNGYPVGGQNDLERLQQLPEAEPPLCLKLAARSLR

SCRIB_1, Q14160 = target: SCRIB_1, Q14160
SCRIB_1, Q14160, sequence (Q14160 718-814): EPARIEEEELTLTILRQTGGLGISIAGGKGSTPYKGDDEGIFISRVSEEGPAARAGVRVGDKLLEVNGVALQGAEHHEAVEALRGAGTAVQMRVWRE

GORASP1, Q9BQQ3 = target: GORASP1, Q9BQQ3
GORASP1, Q9BQQ3, sequence (Q9BQQ3 1-208): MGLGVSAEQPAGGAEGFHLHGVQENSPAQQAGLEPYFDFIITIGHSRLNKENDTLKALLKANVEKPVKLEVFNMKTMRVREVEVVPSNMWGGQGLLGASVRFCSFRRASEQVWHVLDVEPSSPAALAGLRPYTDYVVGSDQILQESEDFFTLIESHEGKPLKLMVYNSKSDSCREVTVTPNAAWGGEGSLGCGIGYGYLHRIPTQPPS

GRIP2_6, Q9C0E4 = target: GRIP2_6, Q9C0E4
GRIP2_6, Q9C0E4, sequence (Q9C0E4 648-740): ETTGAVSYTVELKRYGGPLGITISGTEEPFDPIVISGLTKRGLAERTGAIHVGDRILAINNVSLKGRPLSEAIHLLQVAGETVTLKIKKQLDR

DLG2_3, Q15700 = target: DLG2_3, Q15700
PDLIM1, O00151 = target: PDLIM1, O00151
PDLIM1, O00151, sequence (O00151 1-87): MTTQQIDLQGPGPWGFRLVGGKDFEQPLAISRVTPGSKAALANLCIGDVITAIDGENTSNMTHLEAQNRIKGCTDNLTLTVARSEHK

IL16_1, Q14005 = target: IL16_1, Q14005
IL16_1, Q14005, sequence (Q14005 210-306): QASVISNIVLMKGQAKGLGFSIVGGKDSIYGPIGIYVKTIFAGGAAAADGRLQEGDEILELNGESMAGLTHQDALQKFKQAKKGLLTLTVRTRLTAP

TJP1_2, Q07157 = target: TJP1_2, Q07157
TJP1_2, Q07157, sequence (Q07157 181-274): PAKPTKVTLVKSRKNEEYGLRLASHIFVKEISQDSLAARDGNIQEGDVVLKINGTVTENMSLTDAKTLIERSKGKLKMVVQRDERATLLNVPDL

RHPN1, Q8TCX5 = target: T11, RHPN1, Q8TCX5
T11 sequence (Q8TCX5 508-602, limits assumed, looked up): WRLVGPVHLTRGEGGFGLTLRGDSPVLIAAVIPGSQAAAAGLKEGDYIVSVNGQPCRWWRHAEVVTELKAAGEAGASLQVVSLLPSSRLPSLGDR

Binder | pKd (SNTB1, Q13884) | pKd (LRRC7, Q96NW7) | pKd (ARHGAP21, Q5T5U3) | pKd (FRMPD1, Q5SYB0) | pKd (PDZRN3_1, Q9UPQ7) | pKd (MPDZ_10, O75970) | pKd (MPP7, Q5T2T1) | pKd (Inadl_4, Q8NI35) | pKd (SCRIB_3, Q14160) | pKd (Inadl_3, Q8NI35) | pKd (DFNB31_2, Q9P202) | pKd (DLG4_1, P78352) | pKd (FRMPD2_2, Q68DX3) | pKd (Inadl_1, Q8NI35) | pKd (MPDZ_5, O75970) | pKd (NHERF4_1, Q86UT5-2) | pKd (HTRA3, P83110) | pKd (GORASP2, Q9H8Y8) | pKd (NHERF4_4, Q86UT5) | pKd (SCRIB_1, Q14160) | also measured
B1 | 4.1 | below the threshold | 4 | below the threshold | 3.74 | 3.63 | below the threshold | below the threshold | 3.48 | below the threshold | 3.52 | 4.34 | below the threshold | below the threshold | 3.56 | below the threshold | below the threshold | below the threshold | 3.74 | 3.56 | pKd (GORASP1, Q9BQQ3): below the threshold; pKd (GRIP2_6, Q9C0E4): 3.49; pKd (DLG2_3, Q15700): below the threshold; pKd (PDLIM1, O00151): below the threshold; pKd (IL16_1, Q14005): below the threshold; pKd (TJP1_2, Q07157): below the threshold; pKd (RHPN1, Q8TCX5): 4.06
B2 | 4.25 | below the threshold | 3.86 | below the threshold | 3.92 | 3.83 | below the threshold | below the threshold | 4.24 | below the threshold | below the threshold | 4.26 | 4.21 | below the threshold | below the threshold | 4.2 | 3.52 | 3.75 | 4.05 | 4.53 | pKd (GORASP1, Q9BQQ3): below the threshold; pKd (GRIP2_6, Q9C0E4): below the threshold; pKd (DLG2_3, Q15700): 4.24; pKd (PDLIM1, O00151): below the threshold; pKd (IL16_1, Q14005): below the threshold; pKd (TJP1_2, Q07157): below the threshold; pKd (RHPN1, Q8TCX5): 3.81
B3 | 3.87 | below the threshold | 4.02 | below the threshold | below the threshold | below the threshold | below the threshold | below the threshold | 3.88 | below the threshold | below the threshold | below the threshold | below the threshold | below the threshold | below the threshold | below the threshold | below the threshold | below the threshold | below the threshold | 3.68 | pKd (GORASP1, Q9BQQ3): below the threshold; pKd (GRIP2_6, Q9C0E4): below the threshold; pKd (DLG2_3, Q15700): below the threshold; pKd (PDLIM1, O00151): below the threshold; pKd (IL16_1, Q14005): below the threshold; pKd (TJP1_2, Q07157): below the threshold; pKd (RHPN1, Q8TCX5): 3.49
